Measured values as given in paper PMC3074124.

Target: T1, His6-MBNL1 (human, UniProt Q9NR56-5 1-382)
T1 sequence: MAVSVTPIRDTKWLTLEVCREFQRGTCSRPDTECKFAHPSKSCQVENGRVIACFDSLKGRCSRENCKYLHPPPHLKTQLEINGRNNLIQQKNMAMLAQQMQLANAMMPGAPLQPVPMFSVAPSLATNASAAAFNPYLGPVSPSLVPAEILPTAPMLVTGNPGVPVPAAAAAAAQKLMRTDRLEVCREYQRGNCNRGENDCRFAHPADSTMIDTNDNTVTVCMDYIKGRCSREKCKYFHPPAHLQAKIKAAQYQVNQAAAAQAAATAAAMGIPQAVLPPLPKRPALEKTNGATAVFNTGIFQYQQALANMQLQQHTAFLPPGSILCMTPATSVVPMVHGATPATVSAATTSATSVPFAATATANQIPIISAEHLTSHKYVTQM
Assay: EMSA

B1: DOWN (ssRNA)
RNA: GUAUGACUCACCUGUGCGACCCCUGGUGCCUGCUCCGCGCAGGGCCGGCGGCGUGCCAGGCAGAUGCCUCGGAGAACCCAGGGGUUUCUGUGGCUUUUUGCAUGCGGCGGGCAGCUGUGCUGGAGAGCAGAUGCUUCACCAAUUCAGAAAUCCAAUGCCUUCACUCUGAAAUGAAAUCUGGGCAU
- binding result: binds
